Assay results: PMC3093132

Target: hExo1 catalytic domain D173A (Homo sapiens, UniProt Q9UQ84 1-352, D173A)
Experiment: crystal structure

hExo1 catalytic domain D173A, sequence (Q9UQ84 1-352 D173A): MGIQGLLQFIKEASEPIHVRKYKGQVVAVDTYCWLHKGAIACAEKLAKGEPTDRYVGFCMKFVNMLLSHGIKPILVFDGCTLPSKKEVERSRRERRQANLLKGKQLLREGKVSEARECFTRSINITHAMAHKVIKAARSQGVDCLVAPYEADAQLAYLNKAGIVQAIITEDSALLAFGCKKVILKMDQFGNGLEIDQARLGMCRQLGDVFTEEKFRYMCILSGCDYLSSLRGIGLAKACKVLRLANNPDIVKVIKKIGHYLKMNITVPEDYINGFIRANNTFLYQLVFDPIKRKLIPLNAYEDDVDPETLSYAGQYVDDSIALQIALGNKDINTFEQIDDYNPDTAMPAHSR

B1: 5'-recessed-end substrate (gap mimic) (dsDNA)
DNA 1: TCGACTAGCG
DNA 2: CGCTAGTCGACAC
modifications: 5' phosphate on strand 1
B1: binds.
